Experimental data as given in patent publication US20250277199, “NOVEL CRISPR-CAS NUCLEASES FROM METAGENOMES” (Brain Biotech AG, published 2025).

Biological target: T1, BMC13 (uncultured bacterium (metagenome))
T1 chain: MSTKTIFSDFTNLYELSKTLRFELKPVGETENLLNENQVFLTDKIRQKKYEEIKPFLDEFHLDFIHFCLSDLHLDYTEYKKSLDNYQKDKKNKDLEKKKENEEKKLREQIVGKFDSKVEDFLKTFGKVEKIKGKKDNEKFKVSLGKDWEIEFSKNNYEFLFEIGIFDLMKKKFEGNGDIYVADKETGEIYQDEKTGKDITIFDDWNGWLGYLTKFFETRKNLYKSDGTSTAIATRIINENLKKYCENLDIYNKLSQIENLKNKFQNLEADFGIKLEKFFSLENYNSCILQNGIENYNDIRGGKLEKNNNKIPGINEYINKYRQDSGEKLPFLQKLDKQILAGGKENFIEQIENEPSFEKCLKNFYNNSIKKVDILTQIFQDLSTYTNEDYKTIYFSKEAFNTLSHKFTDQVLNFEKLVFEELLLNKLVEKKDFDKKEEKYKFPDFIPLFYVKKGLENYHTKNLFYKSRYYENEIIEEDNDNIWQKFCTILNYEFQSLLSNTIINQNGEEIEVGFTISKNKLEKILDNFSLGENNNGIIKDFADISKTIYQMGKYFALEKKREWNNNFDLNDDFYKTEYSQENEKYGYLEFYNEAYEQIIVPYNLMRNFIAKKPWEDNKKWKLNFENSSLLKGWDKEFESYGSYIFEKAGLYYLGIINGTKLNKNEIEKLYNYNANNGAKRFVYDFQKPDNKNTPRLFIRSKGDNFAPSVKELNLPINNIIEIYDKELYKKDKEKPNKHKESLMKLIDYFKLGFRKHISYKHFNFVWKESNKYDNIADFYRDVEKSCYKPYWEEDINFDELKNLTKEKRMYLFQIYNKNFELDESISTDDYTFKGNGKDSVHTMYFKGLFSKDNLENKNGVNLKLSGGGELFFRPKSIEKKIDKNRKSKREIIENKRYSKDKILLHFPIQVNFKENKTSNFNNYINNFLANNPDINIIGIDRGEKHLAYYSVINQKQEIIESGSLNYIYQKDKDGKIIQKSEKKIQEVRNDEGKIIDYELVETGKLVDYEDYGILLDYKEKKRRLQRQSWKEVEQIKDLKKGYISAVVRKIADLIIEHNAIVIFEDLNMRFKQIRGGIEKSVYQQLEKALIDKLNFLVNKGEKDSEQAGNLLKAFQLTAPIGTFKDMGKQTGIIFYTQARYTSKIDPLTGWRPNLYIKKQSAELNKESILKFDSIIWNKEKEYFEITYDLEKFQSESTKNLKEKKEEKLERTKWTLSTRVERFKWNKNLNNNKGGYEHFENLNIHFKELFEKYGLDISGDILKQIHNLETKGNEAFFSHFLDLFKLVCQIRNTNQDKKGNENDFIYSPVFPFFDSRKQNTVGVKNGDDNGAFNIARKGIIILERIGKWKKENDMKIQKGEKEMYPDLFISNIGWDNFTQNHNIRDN
Assay: cell_activity; PAM not stated; E. coli depletion, 30 C
Procedure, shortened: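 E. coli carrying arabinose-induced (0.2%) BMC nuclease, grown at 30° C., made electrocompetent and electroporated with 50-100 ng plasmid carrying gRNA against malQ. Transformants plated on selective M9-glucose agar with kanamycin/ampicillin (± nourseothricin), and growth scored after 48 h at 30° C.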

B1: malQ gRNA (BMC stem-loop + 24 nt spacer) ; malQ protospacer (ssRNA ; dsDNA)
RNA: GAUUUCUACUAUUGUAGAUGUGGCGGUACGUUGAUGCAUCGCG
DNA 1: GTGGCGGTACGTTGATGCATCGCG
DNA 2: CGCGATGCATCAACGTACCGCCAC
- activity: > 99.9 % colony reduction
